B1: ESRRG (parent)
chain: YSCPATNECEITKRRRKSCQACRF
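Also: lentivirally expressed fusions sorted by FACS into six bins by GFP to DsRed ratio, PSI derived from sequencing read proportions per bin multiplied by bin number.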

This series covers variants of B1. The series is described as follows: protein stability index of a GFP-peptide fusion (GPS, HEK-293T) (PSI 1-6); higher = more stable. The conditions noted are these: c terminus: a fixed tail appended.
In the case of YSCYATNECEITKRRRKSCQACRF [P4Y], the protein stability index was determined as 2.59.
For the variant YSCMATNECEITKRRRKSCQACRF [P4M], the protein stability index was 2.76.
Consider YSCGATNECEITKRRRKSCQACRF [P4G], for which the protein stability index turned out to be 2.93.
YSCTATNECEITKRRRKSCQACRF [P4T]: the protein stability index came out at 3.21.
YSCFATNECEITKRRRKSCQACRF [P4F]: the protein stability index turned out to be 2.39.
Take YSCIATNECEITKRRRKSCQACRF [P4I]: the protein stability index turned out to be 2.53.
With YSCQATNECEITKRRRKSCQACRF [P4Q], the protein stability index was determined as 3.11.
Turning to YSCKATNECEITKRRRKSCQACRF [P4K], the protein stability index was 3.18.
With YSCDATNECEITKRRRKSCQACRF [P4D], the protein stability index came out at 3.48.
For YSCCATNECEITKRRRKSCQACRF [P4C], the protein stability index was found to be 2.92.
As to YSCLATNECEITKRRRKSCQACRF [P4L], the protein stability index came to 2.64.
Consider YSCEATNECEITKRRRKSCQACRF [P4E], for which the protein stability index was found to be 3.2.
The same measure for YSCRATNECEITKRRRKSCQACRF [P4R]: 3.09; for YSCVATNECEITKRRRKSCQACRF [P4V]: 3.09.
In the case of YSCWATNECEITKRRRKSCQACRF [P4W], the protein stability index is 1.47.
On to YSCSATNECEITKRRRKSCQACRF [P4S], for which the protein stability index came to 3.11.
With YSCAATNECEITKRRRKSCQACRF [P4A], the protein stability index turned out to be 3.03.
The same measure for YSCHATNECEITKRRRKSCQACRF [P4H]: 2.91.
Take YSCNATNECEITKRRRKSCQACRF [P4N]: the protein stability index amounted to 3.24.
The same measure for YSCPACNECEITKRRRKSCQACRF [T6C]: 3.76; for YSCPAENECEITKRRRKSCQACRF [T6E]: 3.37.
Consider YSCPAHNECEITKRRRKSCQACRF [T6H], for which the protein stability index is 3.65.
Regarding YSCPAGNECEITKRRRKSCQACRF [T6G], the protein stability index was 3.65.
Regarding YSCPASNECEITKRRRKSCQACRF [T6S], the protein stability index came out at 3.1.
With YSCPADNECEITKRRRKSCQACRF [T6D], the protein stability index worked out at 3.71.
Take YSCPARNECEITKRRRKSCQACRF [T6R]: the protein stability index was 3.46.
Turning to YSCPAINECEITKRRRKSCQACRF [T6I], the protein stability index came to 3.31.
For the variant YSCPAQNECEITKRRRKSCQACRF [T6Q], the protein stability index was 3.42.
Take YSCPAPNECEITKRRRKSCQACRF [T6P]: the protein stability index is 2.2.
For YSCPAYNECEITKRRRKSCQACRF [T6Y] the value was 2.29.
For the variant YSCPAANECEITKRRRKSCQACRF [T6A], the protein stability index amounted to 3.13.
For YSCPANNECEITKRRRKSCQACRF [T6N], the protein stability index is 4.04.
YSCPALNECEITKRRRKSCQACRF [T6L]: the protein stability index came out at 3.1.
As to YSCPAFNECEITKRRRKSCQACRF [T6F], the protein stability index was 2.47.
Turning to YSCPAVNECEITKRRRKSCQACRF [T6V], the protein stability index came to 3.1.
As for YSCPAWNECEITKRRRKSCQACRF [T6W], the protein stability index turned out to be 2.26.
For the variant YSCPAMNECEITKRRRKSCQACRF [T6M], the protein stability index came to 3.38.
For YSCPAKNECEITKRRRKSCQACRF [T6K] the value was 3.72; for YSCPATNEQEITKRRRKSCQACRF [C9Q], 3.47; for YSCPATNEHEITKRRRKSCQACRF [C9H], 3.68.
As for YSCPATNEKEITKRRRKSCQACRF [C9K], the protein stability index turned out to be 3.91.
Turning to YSCPATNEGEITKRRRKSCQACRF [C9G], the protein stability index was 3.82.
For YSCPATNEEEITKRRRKSCQACRF [C9E] the value was 3.79; for YSCPATNESEITKRRRKSCQACRF [C9S], 3.66; for YSCPATNEMEITKRRRKSCQACRF [C9M], 3.59.
With YSCPATNELEITKRRRKSCQACRF [C9L], the protein stability index came out at 3.08.
Take YSCPATNEREITKRRRKSCQACRF [C9R]: the protein stability index is 3.38.
Regarding YSCPATNEAEITKRRRKSCQACRF [C9A], the protein stability index is 3.39.
Consider YSCPATNEPEITKRRRKSCQACRF [C9P], for which the protein stability index was 3.5.
As to YSCPATNEIEITKRRRKSCQACRF [C9I], the protein stability index came out at 3.48.
With YSCPATNEFEITKRRRKSCQACRF [C9F], the protein stability index was determined as 3.32.
YSCPATNENEITKRRRKSCQACRF [C9N]: the protein stability index is 3.18.
On to YSCPATNEDEITKRRRKSCQACRF [C9D], for which the protein stability index was 3.4.
YSCPATAECEITKRRRKSCQACRF [N7A]: the protein stability index was 2.64.
For the variant YSCPATTECEITKRRRKSCQACRF [N7T], the protein stability index is 3.61.
With YSCPATDECEITKRRRKSCQACRF [N7D], the protein stability index was determined as 3.31.
Take YSCPATSECEITKRRRKSCQACRF [N7S]: the protein stability index was determined as 3.01.
Turning to YSCPATFECEITKRRRKSCQACRF [N7F], the protein stability index came to 2.52.
With YSCPATMECEITKRRRKSCQACRF [N7M], the protein stability index amounted to 2.96.
For YSCPATEECEITKRRRKSCQACRF [N7E], the protein stability index is 3.19.
Consider YSCPATYECEITKRRRKSCQACRF [N7Y], for which the protein stability index was 2.06.
Consider YSCPATGECEITKRRRKSCQACRF [N7G], for which the protein stability index amounted to 3.29.
YSCPATLECEITKRRRKSCQACRF [N7L]: the protein stability index was found to be 2.74.
The same measure for YSCPATKECEITKRRRKSCQACRF [N7K]: 3.57.
YSCPATQECEITKRRRKSCQACRF [N7Q]: the protein stability index was 3.36.
For the variant YSCPATPECEITKRRRKSCQACRF [N7P], the protein stability index is 3.55.
For YSCPATIECEITKRRRKSCQACRF [N7I] the value was 2.83; for YSCPATVECEITKRRRKSCQACRF [N7V], 3.14; for YSCPATRECEITKRRRKSCQACRF [N7R], 3.56.
The same measure for YSCPATCECEITKRRRKSCQACRF [N7C]: 2.42; for YSCPATHECEITKRRRKSCQACRF [N7H]: 3.88.
On to YSCPATWECEITKRRRKSCQACRF [N7W], for which the protein stability index turned out to be 2.35.
Turning to HSCPATNECEITKRRRKSCQACRF [Y1H], the protein stability index is 3.8.
Take ISCPATNECEITKRRRKSCQACRF [Y1I]: the protein stability index is 3.6.
The same measure for PSCPATNECEITKRRRKSCQACRF [Y1P]: 4.32; for SSCPATNECEITKRRRKSCQACRF [Y1S]: 4.28.
Turning to CSCPATNECEITKRRRKSCQACRF [Y1C], the protein stability index turned out to be 4.88.
As to FSCPATNECEITKRRRKSCQACRF [Y1F], the protein stability index was 3.36.
With GSCPATNECEITKRRRKSCQACRF [Y1G], the protein stability index was found to be 4.02.
WSCPATNECEITKRRRKSCQACRF [Y1W]: the protein stability index came to 3.11.
Consider KSCPATNECEITKRRRKSCQACRF [Y1K], for which the protein stability index is 3.92.
The same measure for DSCPATNECEITKRRRKSCQACRF [Y1D]: 4.05.
The same measure for ESCPATNECEITKRRRKSCQACRF [Y1E]: 4.13; for ASCPATNECEITKRRRKSCQACRF [Y1A]: 4.13; for RSCPATNECEITKRRRKSCQACRF [Y1R]: 4.21.
As for LSCPATNECEITKRRRKSCQACRF [Y1L], the protein stability index amounted to 4.09.
In the case of QSCPATNECEITKRRRKSCQACRF [Y1Q], the protein stability index was found to be 4.19.
As to VSCPATNECEITKRRRKSCQACRF [Y1V], the protein stability index turned out to be 3.93.
In the case of NSCPATNECEITKRRRKSCQACRF [Y1N], the protein stability index turned out to be 4.29.
The same measure for TSCPATNECEITKRRRKSCQACRF [Y1T]: 4.35.
Consider MSCPATNECEITKRRRKSCQACRF [Y1M], for which the protein stability index amounted to 4.2.
In the case of YYCPATNECEITKRRRKSCQACRF [S2Y], the protein stability index was found to be 2.89.
As for YFCPATNECEITKRRRKSCQACRF [S2F], the protein stability index was 3.
In the case of YRCPATNECEITKRRRKSCQACRF [S2R], the protein stability index was found to be 4.17.

Values taken from the supplement of paper PMC10567573.
